Tested on: H2B-S33
Test: In vitro kinase assay (γ32P-ATP, SDS-PAGE, autoradiography, scintillation counting)
Format: biochemical, Drosophila
Settings: for Turnover values for phosphorylation of H2B-S33: 3 μg enzyme
Experimental: Kinase reactions were programmed with 1 μg RAP74, 1 μg recombinant histone, 2 μg polynucleosomes, 2 μg histone octamers, or 300 ng histone peptide, and contained 400 ng endogenous TFIID or 250 ng recombinant TAF1 derivatives and 0.25 μCi γ^32P-ATP. Reactions were performed in 20 μl kinase buffer (25 mM Hepes (pH 7.6), 10% glycerol, and 400 mM NaCl) for 25 min at 25° C. Reaction products were analyzed by SDS-PAGE using 8%—(for recombinant proteins), 15%—(for histones), or 18% (for peptides) gels. After electrophoresis, gels were dried and exposed to X-ray film.
To quantify kinase reactions, reactions products were separated by SDS-PAGE and detected by coomassie blue staining. Radiolabeled H2B was detected by autoradiography, excised from the gel, and analyzed by scintillation counting.
To measure the kinase activity of TFIID, TAF1, CTK, and mutant CTK-derivatives, reaction products of in vitro kinase assays were separated by SDS-PAGE and stained with coomassie blue. Radiolabeled H2B, H2BT and controls were excised from the gel and incorporation of radioactivity was determined by scintillation counting. Turnover values for phosphorylation of H2B-S33 were determined by measuring incorporation of radiolabeled phosphate groups into H2B in the presence of 3 μg TAF1, TFIID, or CTK-derivatives and 3 μg H2B or 12 μg nucleosomes. The turnover values were: TFIID (nucleosomes: 3.3/sec; H2B: 2.6/sec); TAF1: (nucleosomes: 2.5/sec; H2B: 2.5/sec); CTK: (nucleosomes: 2.6/sec; H2B: 4.4/sec).

Substance | Turnover values for phosphorylation of H2B-S33 (substrate 3 μg H2B) | Turnover values for phosphorylation of H2B-S33 (substrate 12 μg nucleosomes) | H2B phosphorylation in vitro (qualitative) (autoradiography) | kinase activity, % of the activity determined for TFIID, TAF1 and CTK (radiolabeled H2B, scintillation counting)
TAF1: subunit of TFIID that has kinase activity; recombinant Flag-tagged Drosophila protein | 2.5 s⁻¹ | 2.5 s⁻¹ | – | –
TAF1ΔCTK: TAF1 truncated by stop codon behind amino acid 1728, deleting the CTK downstream of the DBD | – | – | does not phosphorylate H2B in vitro | less than 0.1%

— patent US20060115482A1, “Modifications of histone proteins as indicators of cell proliferation and differentiation” (The Regents of the University of California, priority 2004, published 2006)
